The supplement of paper PMC7877785
± gives the uncertainty stated by the source.

Assay: self-splicing fitness, log relative to wild type (ln ratio); higher = more splicing; Tetrahymena group I intron in knt gene, E. coli kanamycin selection, DiMSum; sequences stand for … in CUCUCU…GGAGGGAAAAGUUAUCAGGCAUGCACCUGGUAGCUAGUCUUUAAACCAAUAGAUUGCAUCGGUUUAAAAGGCAAGACCGUCAAAUUGCGGGAAAGGGGUCAACAGCCGUUCAGUACCAAGUCUCAGGGGAAACUUUGAGAUGGCCUUGCAAAGGGUAUGGUAAUAAGCUGACGGACAUGGUCCUAACCACGCAGCCAAGUCCUAAGUCAACAGAUCUUCUGUUGAUAUGGAUGCAGUUCACAGACUAAAUGUCGGUCGGGGAAGAUGUAUUCUUCUCAUAAGAUAUAGUCGGACCUCUCCUUAAUGGGAGCUAGCGGAUGAAGUGAUGCAACACUGGAGCCGCUGGGAACUAAUUUGUAUGCGAAAGUAUAUUGAUUAGUUUUGGAGUACUCGUGGUCG
How it was run: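 Six replicate transformations of E. coli BL21(DE3) with a pET-22b(+) library were grown overnight at 37°C or 30°C. The library randomised all eight P1ex-region intron nucleotides, the intron lying in the knt kanamycin-resistance gene, and plates were LB agar with or without 25 μg/mL kanamycin plus 100 μg/mL carbenicillin, 50 μM IPTG and 0.2% rhamnose. Pooled colonies were amplicon-sequenced on an Illumina HiSeq 2500, and fitness is the DiMSum error-weighted combination of wild-type-normalised replicate fold changes, kanamycin versus none.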

Row | Sequence | self-splicing fitness (ln) (30 °C) | self-splicing fitness (ln) (37 °C)
1 | CUAUAGCAAUAUUACGUAGC | -4.05 ± 0.31 | -3.11 ± 0.43
2 | CUAUAGCAAUAUUACGUGAU | -1.33 ± 0.066 | -0.295 ± 0.1
3 | CUAUAGCAAUAUUACGUUAA | -4.29 ± 0.47 | -3.36 ± 0.42
4 | CUAUAGCAAUAUUACGUUUG | -1.38 ± 0.084 | -1.11 ± 0.11
5 | CUCAAGCAAUAUUACGAACG | -1.54 ± 0.089 | -0.932 ± 0.12
6 | CUCAAGCAAUAUUACGACUU | -2.2 ± 0.18 | –
7 | CUCAAGCAAUAUUACGAGAA | -1.89 ± 0.31 | -1.1 ± 0.24
8 | CUCAAGCAAUAUUACGAGAG | -3.27 ± 0.22 | -1.81 ± 0.23
9 | CUCAAGCAAUAUUACGAGCU | -4.33 ± 0.3 | -4.08 ± 0.39
10 | CUCAAGCAAUAUUACGCACA | -2.17 ± 0.34 | -2.48 ± 0.28
11 | CUCAAGCAAUAUUACGCAUU | -3.4 ± 0.15 | -2.7 ± 0.19
12 | CUCAAGCAAUAUUACGCCCG | -0.954 ± 0.17 | -2.11 ± 0.21
13 | CUCAAGCAAUAUUACGCCUU | – | -3.47 ± 0.39
14 | CUCAAGCAAUAUUACGCGCA | -2.95 ± 0.16 | -2.21 ± 0.15
15 | CUCAAGCAAUAUUACGCUAU | -3.05 ± 0.18 | -2.17 ± 0.16
16 | CUCAAGCAAUAUUACGGACA | -2.5 ± 0.35 | -2.1 ± 0.32
17 | CUCAAGCAAUAUUACGGAGA | -2.83 ± 0.19 | -1.98 ± 0.15
18 | CUCAAGCAAUAUUACGGGAC | -3.7 ± 0.33 | -2.14 ± 0.3
19 | CUCAAGCAAUAUUACGGGAU | -3.47 ± 0.12 | -1.34 ± 0.099
20 | CUCAAGCAAUAUUACGGUAC | – | -3.06 ± 0.37
21 | CUCAAGCAAUAUUACGUAAG | -0.417 ± 0.054 | -0.102 ± 0.086
22 | CUCAAGCAAUAUUACGUCAA | -4.09 ± 0.35 | -2.31 ± 0.19
23 | CUCAAGCAAUAUUACGUCAC | -3.4 ± 0.22 | -2.7 ± 0.21
24 | CUCAAGCAAUAUUACGUGCA | -3.43 ± 0.26 | -1.85 ± 0.19
25 | CUCCAGCAAUAUUACGACAG | -1.4 ± 0.14 | -0.3 ± 0.14

Row | Sequence | self-splicing fitness (ln) (30 °C) | self-splicing fitness (ln) (37 °C)
26 | CUCCAGCAAUAUUACGAGUA | -2.58 ± 0.16 | -2.14 ± 0.14
27 | CUCCAGCAAUAUUACGAUAC | -3.57 ± 0.31 | -1.94 ± 0.32
28 | CUCCAGCAAUAUUACGCACG | -1.52 ± 0.13 | -1.12 ± 0.18
29 | CUCCAGCAAUAUUACGCAGU | -3.59 ± 0.21 | -2.04 ± 0.23
30 | CUCCAGCAAUAUUACGCCAA | – | -2.07 ± 0.27
31 | CUCCAGCAAUAUUACGCGGC | -1.8 ± 0.26 | -2.08 ± 0.39
32 | CUCCAGCAAUAUUACGCUAA | -3.28 ± 0.27 | -2.62 ± 0.42
33 | CUCCAGCAAUAUUACGCUUA | -4.14 ± 0.34 | -2.49 ± 0.24
34 | CUCCAGCAAUAUUACGGAAG | -3.34 ± 0.16 | -3.14 ± 0.24
35 | CUCCAGCAAUAUUACGGACG | -0.729 ± 0.059 | -0.666 ± 0.09
36 | CUCCAGCAAUAUUACGGCUC | -2.78 ± 0.23 | -1.57 ± 0.17
37 | CUCCAGCAAUAUUACGGUAU | -4.21 ± 0.22 | -3.58 ± 0.19
38 | CUCCAGCAAUAUUACGGUGA | -2 ± 0.099 | -1.39 ± 0.11
39 | CUCCAGCAAUAUUACGUCCA | -3.35 ± 0.39 | -3.24 ± 0.33
40 | CUCCAGCAAUAUUACGUCGU | -3.07 ± 0.12 | -2.72 ± 0.18
41 | CUCCAGCAAUAUUACGUGCA | -3.43 ± 0.17 | -2.32 ± 0.13
42 | CUCCAGCAAUAUUACGUGGG | -3.29 ± 0.11 | -2.62 ± 0.14
43 | CUCCAGCAAUAUUACGUUAG | -2.15 ± 0.094 | -1.51 ± 0.12
44 | CUCCAGCAAUAUUACGUUCU | -2.89 ± 0.15 | -3.65 ± 0.46
45 | CUCCAGCAAUAUUACGUUUU | -3.38 ± 0.12 | -3.12 ± 0.15
46 | CUCGAGCAAUAUUACGAUAA | -2.16 ± 0.36 | -2.02 ± 0.37
47 | CUCGAGCAAUAUUACGCACU | -2.96 ± 0.3 | –
48 | CUCGAGCAAUAUUACGGACG | -2.4 ± 0.15 | -2.25 ± 0.23
49 | CUCGAGCAAUAUUACGGCGU | -1.96 ± 0.12 | -1.61 ± 0.18
